Like-named read-outs stand apart in the source and are kept apart here. Starred links: 1 amine or outer side, 2 acyl side, 3 side chain; linkers in the order of their positions; H or OH if unused. Non-standard residues stand in square brackets, D forms with d. Residues, ends and D or L forms follow the SMILES beside them. No end group written: not given here. X1 = O=C([C@H](CC1C=NC=N1)N[*:1])[*:2]
Experiments:
oligonucleotide BC.V4A = assay: DNA binding assay of in vitro translated p53 deletion mutants (gel shift)
Procedure: (§1) The ability of the peptides of this invention to activate DNA binding of human p53 was assayed using a standard DNA binding assay for p53 [Halazonetis et al. (1993), cited above; Halazonetis and Kandil (1993), cited above]. This assay utilizes in vitro translated human wild-type p53 or tumor-derived p53 mutants and specific oligonucleotides containing p53 binding sites. These reagents and methods for preparing them are described below.
Plasmids of the pGEMhump53 series were used to produce in vitro transcribed mRNA and subsequently in vitro translated protein, according to standard procedures [Halazonetis et al. (1988), Cell, 55: 917-924]. The in vitro translated proteins were assayed for DNA binding, as previously described [Halazonetis et al. (1993), cited above, and incorporated herein by reference]. Briefly the in vitro translated protein is incubated with a radioactively labeled oligonucleotide containing a p53 binding site in the presence of non-specific competitor DNA. The reaction mixture is incubated 20 min. at room temperature and directly loaded on a native 5% polyacrylamide electrophoresis gel. In this type of DNA binding assay free DNA migrates to the bottom of the gel, whereas p53/DNA complexes migrate more slowly. Thus, the presence of slowly migrating DNA, which can be detected by autoradiography, indicates p53 DNA binding [Halazonetis et al. (1993), cited above; Halazonetis and Kandil (1993), cited above].
As non-specific competitor DNAs we used 0.1 μg single-stranded oligonucleotide MI7 [[…], SEQ ID NO: 27] and 0.05 μg double-stranded oligonucleotide TF3 [[…], SEQ ID NO: 28] per reaction.
A number of double-stranded oligonucleotides containing p53 binding sites were radioactively labeled for these experiments. […] These three sites are indicated below, and the specific pentanucleotide repeats recognized by p53 are demarcated by hyphens. The sequence of oligonucleotide Ewaf1 (top strand) is: CCC-GAACA-TGTCC-CAACA-TGTTG-GGG [SEQ ID NO: 29]. […]

human wild-type p53 = biological target: T1, human wild-type p53 (Homo sapiens, UniProt P04637); assay: p53 DNA binding assay: activation of DNA binding of wild-type p53; type: biochemical; conditions: for activation of binding of wild-type p53: peptide 0.4 mM; for potency in activating DNA binding relative to p53p373-383: 0.4 mM
T1 construct: Plasmid pGEMhump53wt encodes full-length human wild-type p53; made in house; host or cells: cell-free in vitro transcription and translation from pGEM4-based plasmid

p53 mutant His273 = biological target: T2, p53 mutant His273 (Homo sapiens, UniProt P04637, R273H); assay: p53 DNA binding assay: activation of DNA binding of mutant His273; type: biochemical; conditions: oligonucleotide BC
T2 construct: made in house; host or cells: cell-free in vitro transcription and translation from pGEMhump53His273
Procedure: as §1
Plasmid pGEMhump53wt was used to generate plasmids encoding mutant p53 proteins frequently associated with human cancer. The mutations introduced are those that are most frequently associated with human tumors [Caron de Fromentel et al. (1992), Genes Chrom. Cancer, 4: 1-15]. […]
Plasmids of the pGEMhump53 series were used to produce in vitro transcribed mRNA and subsequently in vitro translated protein, according to standard procedures [Halazonetis et al. (1988), Cell, 55: 917-924]. […] Thus, the presence of slowly migrating DNA, which can be detected by autoradiography, indicates p53 DNA binding [Halazonetis et al. (1993), cited above; Halazonetis and Kandil (1993), cited above]. […]

[1] = oligonucleotide Ewaf1, peptide 0.2-0.3 mM

p53D364-393: human wild-type p53 with deletion of residues 364-393, in vitro translated
Binding of Mutant p53 to BC.V4A DNA (oligonucleotide BC.V4A): activated
Binding of Mutant p53 to BC.V4A DNA (oligonucleotide BC.V4A; listed as pGEMhump53D364-393): activates DNA binding

Ser His Leu Lys Ser Lys Lys Gly Gln Ser Thr Ser Arg His Lys Lys Leu Met Phe Lys (Ac-SHLKSKKGQSTSRHKKLMFK-NH2) [p53p367-386]
activation of DNA binding of wild-type p53 (human wild-type p53; [1]): activated

Cys Gly Gly Ser Arg Ala His Ser Ser His Leu Lys Ser Lys Lys Gly Gln Ser Thr Ser Arg His Lys Lys Leu Met Phe Lys (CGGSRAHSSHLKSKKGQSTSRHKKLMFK; also: mixed with deletion peptides lacking Gly/Phe) [p53pC360-386]
DNA binding activity of p53His273 in presence of peptide (p53 mutant His273; peptide 0.2 mM): demonstrated DNA binding activity
activation of DNA binding of wild-type p53 (human wild-type p53; oligonucleotide BC.V4A, 0.02-0.2 mM peptide): activated
activation of DNA binding of wild-type p53 (human wild-type p53; oligonucleotide Ewaf1, concentration not given): activated

Lys Gly Gln Ser Thr Ser Arg His Lys Lys Leu (Ac-KGQSTSRHKKL-NH2) [p53p373-383]
activation of binding of wild-type p53 (human wild-type p53; oligonucleotide Ewaf1): activated

C[C@H]1NC(=O)[C@H](CCCCN)NC(=O)[C@H](CCCCN)NC(=O)[C@H](CC2C=NC=N2)NC(=O)[C@H](CCCNC(=N)N)NC(=O)[C@H](CO)NC1=O (some centres unmarked) [c[SRHKKa]] (cyclo(KK[dA]SR[X1]))
efficiency of activation of p53 DNA binding relative to 0.05 mM peptide p53p363-373 (human wild-type p53; peptide 0.1 mM, assay of Example 2, p53 form and oligonucleotide not stated): about two times more efficiently

Arg Ala His Ser Ser His Leu Lys Ser Lys Lys (Ac-RAHSSHLKSKK-NH2) [p53p363-373]
potency in activating DNA binding relative to p53p373-383 (human wild-type p53; oligonucleotide Ewaf1): somewhat more potent
activation of binding of wild-type p53 (human wild-type p53; oligonucleotide Ewaf1): activated

p53D356-393: human wild-type p53 with deletion of residues 356-393, in vitro translated
Binding of Mutant p53 to BC.V4A DNA (oligonucleotide BC.V4A): activated

Arg Ala His Ser Ser His Leu Lys Ser Lys Lys Gly Gln Ser Thr Ser Arg His Lys Lys Leu Met Phe Lys (Ac-RAHSSHLKSKKGQSTSRHKKLMFK-NH2) [p53p363-386]
activation of DNA binding of wild-type p53 (human wild-type p53; [1]): activated

Ser Arg Ala His Ser Ser His Leu Lys Ser Lys Lys Gly Gln Ser Thr Ser Arg His Lys Lys Leu Met Phe Lys (Ac-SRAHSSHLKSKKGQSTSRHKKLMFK-NH2) [p53p362-386]
activation of DNA binding of wild-type p53 (human wild-type p53; [1]): activated

Ser Lys Lys Gly Gln Ser Thr Ser Arg His Lys Lys Leu (SKKGQSTSRHKKL) [p53p371-383]
DNA binding activity of p53His273 in presence of peptide (p53 mutant His273; peptide 0.4 mM): demonstrated DNA binding activity
activation of DNA binding of wild-type p53 (human wild-type p53; oligonucleotide BC.V4A, peptide 0.2-0.4 mM): activated

His Leu Lys Ser Lys Lys Gly Gln Ser Thr Ser Arg His (Ac-HLKSKKGQSTSRH-NH2) [p53p368-380]
potency in activating DNA binding relative to p53p373-383 (human wild-type p53; oligonucleotide Ewaf1): somewhat more potent
activation of binding of wild-type p53 (human wild-type p53; oligonucleotide Ewaf1): activated
